Numbered stars: 1 amine (or outer) side, 2 acyl side, 3 side chain; on linkers, the order of the positions; unused ones are H or OH. Bridge positions count the residues as written; N and C are the ends. Side chains are listed from the residue outwards. Ends that are not written are not given here. * marks the point of attachment. C20 diacid = O=C(O)CCCCCCCCCCCCCCCCCCC(=O)*; γGlu = O=C(O)[C@H](CCC(=O)[*:2])N[*:1]; AEEA = NCCOCCOCC(=O)O
T1: human calcitonin receptor (human, UniProt P30988 25-474)
T1 construct: whole, on cells; Used as cell membranes; also called hCTR; hCT
T1 sequence (looked up): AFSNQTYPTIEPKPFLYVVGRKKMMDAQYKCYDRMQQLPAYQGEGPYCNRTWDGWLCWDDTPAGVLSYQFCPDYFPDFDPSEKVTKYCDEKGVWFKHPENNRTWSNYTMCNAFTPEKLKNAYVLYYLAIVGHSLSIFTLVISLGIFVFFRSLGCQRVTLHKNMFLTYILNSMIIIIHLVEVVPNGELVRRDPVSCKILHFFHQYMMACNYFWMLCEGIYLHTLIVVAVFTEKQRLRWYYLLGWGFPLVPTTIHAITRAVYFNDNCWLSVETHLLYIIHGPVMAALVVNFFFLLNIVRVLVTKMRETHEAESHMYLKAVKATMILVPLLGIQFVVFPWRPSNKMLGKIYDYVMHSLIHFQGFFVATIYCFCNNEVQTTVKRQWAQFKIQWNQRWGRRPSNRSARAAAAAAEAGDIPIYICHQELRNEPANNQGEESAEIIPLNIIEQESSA


Columns and labels:
[1] = target: T1, human calcitonin receptor; assay: ratio of hCTR IC50 to hAmylin-R IC50 (reference: human amylin receptor)
Method in brief: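 Competition binding by SPA uses membrane preparations (35 ng/μL final) in pH 7.4 Hepes buffer with 1 mM CaCl2 and 5 mM MgCl₂. Incubation lasts 120 min at 25° C, and IC₅₀ comes from one-site fitting.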

[2] = target: T1, human calcitonin receptor; assay: SPA competition on BHK cell membranes, 125I-calcitonin as radioligand (Assay VII)
Method in brief: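 BHK hCTR membranes 35 ng/μL + SPA beads 0.05 mg/well; buffer 50 mM Hepes pH 7.4, 1 mM CaCl2, 5 mM MgCl₂, 0.1% OA, 0.02% Tween20. 120 min, 25° C., shaking. Scintillation count; IC50 by one-site binding competition.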

Binder | Ratio hCT/hAmylin binding [1] | IC50 [2]
K([γGlu-γGlu-C20 diacid])CNTATCATQRLAHFLRHSSPNFGAIPSSTNVGSNTY-NH2 (disulfide 2-7; N-terminus assumed; SMILES CC[C@H](C)[C@H](NC(=O)[C@H](C)NC(=O)CNC(=O)[C@H](Cc1ccccc1)NC(=O)[C@H](CC(N)=O)NC(=O)[C@@H]1CCCN1C(=O)[C@H](CO)NC(=O)[C@H](CO)NC(=O)[C@H](Cc1c[nH]cn1)NC(=O)[C@H](CCCNC(=N)N)NC(=O)[C@H](CC(C)C)NC(=O)[C@H](Cc1ccccc1)NC(=O)[C@H](Cc1c[nH]cn1)NC(=O)[C@H](C)NC(=O)[C@H](CC(C)C)NC(=O)[C@H](CCCNC(=N)N)NC(=O)[C@H](CCC(N)=O)NC(=O)[C@@H](NC(=O)[C@H](C)NC(=O)[C@@H]1CSSC[C@H](NC(=O)[C@@H](N)CCCCNC(=O)CC[C@H](NC(=O)CC[C@H](NC(=O)CCCCCCCCCCCCCCCCCCC(=O)O)C(=O)O)C(=O)O)C(=O)N[C@@H](CC(N)=O)C(=O)N[C@@H]([C@@H](C)O)C(=O)N[C@@H](C)C(=O)N[C@@H]([C@@H](C)O)C(=O)N1)[C@@H](C)O)C(=O)N1CCC[C@H]1C(=O)N[C@@H](CO)C(=O)N[C@@H](CO)C(=O)N[C@H](C(=O)N[C@@H](CC(N)=O)C(=O)N[C@H](C(=O)NCC(=O)N[C@@H](CO)C(=O)N[C@@H](CC(N)=O)C(=O)N[C@H](C(=O)N[C@@H](Cc1ccc(O)cc1)C(N)=O)[C@@H](C)O)C(C)C)[C@@H](C)O, also called compound 92) | 145 | 26 nM
{C20 diacid-γGlu}-GRCNTATCATQRLAAFLRHSSPNFGAIPSSTNVGHNTY-NH2 (disulfide 3-8; SMILES CC[C@H](C)[C@H](NC(=O)[C@H](C)NC(=O)CNC(=O)[C@H](Cc1ccccc1)NC(=O)[C@H](CC(N)=O)NC(=O)[C@@H]1CCCN1C(=O)[C@H](CO)NC(=O)[C@H](CO)NC(=O)[C@H](Cc1c[nH]cn1)NC(=O)[C@H](CCCNC(=N)N)NC(=O)[C@H](CC(C)C)NC(=O)[C@H](Cc1ccccc1)NC(=O)[C@H](C)NC(=O)[C@H](C)NC(=O)[C@H](CC(C)C)NC(=O)[C@H](CCCNC(=N)N)NC(=O)[C@H](CCC(N)=O)NC(=O)[C@@H](NC(=O)[C@H](C)NC(=O)[C@@H]1CSSC[C@H](NC(=O)[C@H](CCCNC(=N)N)NC(=O)CNC(=O)CC[C@H](NC(=O)CCCCCCCCCCCCCCCCCCC(=O)O)C(=O)O)C(=O)N[C@@H](CC(N)=O)C(=O)N[C@@H]([C@@H](C)O)C(=O)N[C@@H](C)C(=O)N[C@@H]([C@@H](C)O)C(=O)N1)[C@@H](C)O)C(=O)N1CCC[C@H]1C(=O)N[C@@H](CO)C(=O)N[C@@H](CO)C(=O)N[C@H](C(=O)N[C@@H](CC(N)=O)C(=O)N[C@H](C(=O)NCC(=O)N[C@@H](Cc1c[nH]cn1)C(=O)N[C@@H](CC(N)=O)C(=O)N[C@H](C(=O)N[C@@H](Cc1ccc(O)cc1)C(N)=O)[C@@H](C)O)C(C)C)[C@@H](C)O, 38 residues) | 68.6 | 29.2 nM
{C20 diacid-γGlu}-GRCNTATCATQRLAAFLRHSSPNFGAIPSSTNVGPNTY-NH2 (disulfide 3-8, 38 residues) | 26.5 | 3 nM

The remaining binders from weak to strong by IC50 [2], led by results:

Ratio hCT/hAmylin binding [1] | IC50 [2] | Binder
104 | 58.9 nM | K([AEEA-AEEA-γGlu-C20 diacid])CNTATCATQRLANFLRHSSPNFGAIPSSTNVGHNTY-NH2 (disulfide 2-7; N-terminus assumed; SMILES CC[C@H](C)[C@H](NC(=O)[C@H](C)NC(=O)CNC(=O)[C@H](Cc1ccccc1)NC(=O)[C@H](CC(N)=O)NC(=O)[C@@H]1CCCN1C(=O)[C@H](CO)NC(=O)[C@H](CO)NC(=O)[C@H](Cc1c[nH]cn1)NC(=O)[C@H](CCCNC(=N)N)NC(=O)[C@H](CC(C)C)NC(=O)[C@H](Cc1ccccc1)NC(=O)[C@H](CC(N)=O)NC(=O)[C@H](C)NC(=O)[C@H](CC(C)C)NC(=O)[C@H](CCCNC(=N)N)NC(=O)[C@H](CCC(N)=O)NC(=O)[C@@H](NC(=O)[C@H](C)NC(=O)[C@@H]1CSSC[C@H](NC(=O)[C@@H](N)CCCCNC(=O)COCCOCCNC(=O)COCCOCCNC(=O)CC[C@H](NC(=O)CCCCCCCCCCCCCCCCCCC(=O)O)C(=O)O)C(=O)N[C@@H](CC(N)=O)C(=O)N[C@@H]([C@@H](C)O)C(=O)N[C@@H](C)C(=O)N[C@@H]([C@@H](C)O)C(=O)N1)[C@@H](C)O)C(=O)N1CCC[C@H]1C(=O)N[C@@H](CO)C(=O)N[C@@H](CO)C(=O)N[C@H](C(=O)N[C@@H](CC(N)=O)C(=O)N[C@H](C(=O)NCC(=O)N[C@@H](Cc1c[nH]cn1)C(=O)N[C@@H](CC(N)=O)C(=O)N[C@H](C(=O)N[C@@H](Cc1ccc(O)cc1)C(N)=O)[C@@H](C)O)C(C)C)[C@@H](C)O, also called compound 97)
118 | 50.7 nM | K([γGlu-C20 diacid])CNTATCATQRLANFLRHSSPNFGAIPSSTNVGHNTY-NH2 (disulfide 2-7; N-terminus assumed; SMILES CC[C@H](C)[C@H](NC(=O)[C@H](C)NC(=O)CNC(=O)[C@H](Cc1ccccc1)NC(=O)[C@H](CC(N)=O)NC(=O)[C@@H]1CCCN1C(=O)[C@H](CO)NC(=O)[C@H](CO)NC(=O)[C@H](Cc1c[nH]cn1)NC(=O)[C@H](CCCNC(=N)N)NC(=O)[C@H](CC(C)C)NC(=O)[C@H](Cc1ccccc1)NC(=O)[C@H](CC(N)=O)NC(=O)[C@H](C)NC(=O)[C@H](CC(C)C)NC(=O)[C@H](CCCNC(=N)N)NC(=O)[C@H](CCC(N)=O)NC(=O)[C@@H](NC(=O)[C@H](C)NC(=O)[C@@H]1CSSC[C@H](NC(=O)[C@@H](N)CCCCNC(=O)CC[C@H](NC(=O)CCCCCCCCCCCCCCCCCCC(=O)O)C(=O)O)C(=O)N[C@@H](CC(N)=O)C(=O)N[C@@H]([C@@H](C)O)C(=O)N[C@@H](C)C(=O)N[C@@H]([C@@H](C)O)C(=O)N1)[C@@H](C)O)C(=O)N1CCC[C@H]1C(=O)N[C@@H](CO)C(=O)N[C@@H](CO)C(=O)N[C@H](C(=O)N[C@@H](CC(N)=O)C(=O)N[C@H](C(=O)NCC(=O)N[C@@H](Cc1c[nH]cn1)C(=O)N[C@@H](CC(N)=O)C(=O)N[C@H](C(=O)N[C@@H](Cc1ccc(O)cc1)C(N)=O)[C@@H](C)O)C(C)C)[C@@H](C)O, also called compound 77) [N^ε1-[(4S)-4-carboxy-4-(19-carboxynonadecanoylamino)butanoyl]-[Arg17,Pro21,Pro27,His34]-h-amylin]
101 | 12 nM | K([AEEA-C20 diacid])CNTATCATQRLANFLRHSSPNFGAIPSSTNVGHNTY-NH2 (disulfide 2-7; N-terminus assumed; SMILES CC[C@H](C)[C@H](NC(=O)[C@H](C)NC(=O)CNC(=O)[C@H](Cc1ccccc1)NC(=O)[C@H](CC(N)=O)NC(=O)[C@@H]1CCCN1C(=O)[C@H](CO)NC(=O)[C@H](CO)NC(=O)[C@H](Cc1c[nH]cn1)NC(=O)[C@H](CCCNC(=N)N)NC(=O)[C@H](CC(C)C)NC(=O)[C@H](Cc1ccccc1)NC(=O)[C@H](CC(N)=O)NC(=O)[C@H](C)NC(=O)[C@H](CC(C)C)NC(=O)[C@H](CCCNC(=N)N)NC(=O)[C@H](CCC(N)=O)NC(=O)[C@@H](NC(=O)[C@H](C)NC(=O)[C@@H]1CSSC[C@H](NC(=O)[C@@H](N)CCCCNC(=O)COCCOCCNC(=O)CCCCCCCCCCCCCCCCCCC(=O)O)C(=O)N[C@@H](CC(N)=O)C(=O)N[C@@H]([C@@H](C)O)C(=O)N[C@@H](C)C(=O)N[C@@H]([C@@H](C)O)C(=O)N1)[C@@H](C)O)C(=O)N1CCC[C@H]1C(=O)N[C@@H](CO)C(=O)N[C@@H](CO)C(=O)N[C@H](C(=O)N[C@@H](CC(N)=O)C(=O)N[C@H](C(=O)NCC(=O)N[C@@H](Cc1c[nH]cn1)C(=O)N[C@@H](CC(N)=O)C(=O)N[C@H](C(=O)N[C@@H](Cc1ccc(O)cc1)C(N)=O)[C@@H](C)O)C(C)C)[C@@H](C)O, also called compound 91) [N^ε1-[2-[2-[2-(19-carboxynonadecanoylamino)ethoxy]ethoxy]acetyl]-[Arg17,Pro21,Pro27,His34]-h-amylin]
51.6 | 4.63 nM | K([γGlu-C20 diacid])CNTATCATQRLAHFLRHSSPNFGAIPSSTNVGPNTY-NH2 (disulfide 2-7; N-terminus assumed; SMILES CC[C@H](C)[C@H](NC(=O)[C@H](C)NC(=O)CNC(=O)[C@H](Cc1ccccc1)NC(=O)[C@H](CC(N)=O)NC(=O)[C@@H]1CCCN1C(=O)[C@H](CO)NC(=O)[C@H](CO)NC(=O)[C@H](Cc1c[nH]cn1)NC(=O)[C@H](CCCNC(=N)N)NC(=O)[C@H](CC(C)C)NC(=O)[C@H](Cc1ccccc1)NC(=O)[C@H](Cc1c[nH]cn1)NC(=O)[C@H](C)NC(=O)[C@H](CC(C)C)NC(=O)[C@H](CCCNC(=N)N)NC(=O)[C@H](CCC(N)=O)NC(=O)[C@@H](NC(=O)[C@H](C)NC(=O)[C@@H]1CSSC[C@H](NC(=O)[C@@H](N)CCCCNC(=O)CC[C@H](NC(=O)CCCCCCCCCCCCCCCCCCC(=O)O)C(=O)O)C(=O)N[C@@H](CC(N)=O)C(=O)N[C@@H]([C@@H](C)O)C(=O)N[C@@H](C)C(=O)N[C@@H]([C@@H](C)O)C(=O)N1)[C@@H](C)O)C(=O)N1CCC[C@H]1C(=O)N[C@@H](CO)C(=O)N[C@@H](CO)C(=O)N[C@H](C(=O)N[C@@H](CC(N)=O)C(=O)N[C@H](C(=O)NCC(=O)N1CCC[C@H]1C(=O)N[C@@H](CC(N)=O)C(=O)N[C@H](C(=O)N[C@@H](Cc1ccc(O)cc1)C(N)=O)[C@@H](C)O)C(C)C)[C@@H](C)O, also called compound 67)
